± gives the uncertainty stated by the source.
Assay: amyloid nucleation score (Sup35N fusion, yeast selection) (log enrichment); library NNK3; higher = more nucleation; inactive = no reads after selection
Outline: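 The nucleation score, computed with DiMSum, is the log enrichment of output over input reads, centred on the mode score of non-aggregating sequences. Sequences with under 100 input reads were dropped. Reads were generated by Illumina sequencing of plasmid inserts from psi-negative yeast with Sup35N fused to peptides of 20 random codons, induced with 100 μM copper sulfate for 24 hours and grown 7 days at 30°C on medium lacking adenine and uracil.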

| Substance | amyloid nucleation score |
| --- | --- |
| FDGFGMDNIWKTFRNPHLMG | inactive |
| FDLWNIILVYIPVNACC | 0.735 ± 0.11 |
| FDNKFKHSYYDTLAA | inactive |
| FDNVISILPPYFTSFSG | inactive |
| FDRAFYNHWFSCGFPEGWHT | 0.501 ± 0.17 |
| FDRDWDMFFVRIVSQCGMLW | inactive |
| FDTFTMTEDSNPEKSECGLK | inactive |
| FDVELALWC | inactive |
| FEFKSIGNRLGSYTQASWFA | inactive |
| FELPMHTGV | inactive |
| FELRGTLGG | 0.026 ± 0.37 |
| FELYLQLN | 0.478 ± 0.38 |
| FEQNVGGLYWNKWSWGNLMR | inactive |
| FFCSGS | inactive |
| FFETRKYCGKEWFSGMLDMQ | inactive |
| FFLAASPISRNWWSSSLGHS | inactive |
| FFLIDYIYWVGIFNYSLILV | inactive |
| FFLYAVLLFTLLPSVLASGN | inactive |
| FFPKWFCMTLLINDVGNHDM | 0.921 ± 0.25 |
| FFRFRKCAM | inactive |
| FFRSQKWKSAYMLDNGHSNS | inactive |
| FFSSPFMFPASGATVPQRFQ | inactive |
| FFTSTLLSRPNVPNIYSISR | inactive |
| FFVYHTILRLPNGAGLRCGP | inactive |

| Substance | amyloid nucleation score |
| --- | --- |
| FGCRSNDNQ | inactive |
| FGEMRFCFCAG | inactive |
| FGLNSCTSYKYQLSMSGFST | -0.491 ± 0.66 |
| FGLTTRRRPRNVW | inactive |
| FGNFPSCE | inactive |
| FGRLTV | inactive |
| FGSCSEVFSYVAYLRGINDF | inactive |
| FGSLRCFGWLAWSICVNMYY | inactive |
| FGTPMVNVCMPS | inactive |
| FGVFGEIDIYCGW | inactive |
| FGVSSP | inactive |
| FGWAWPFFTKVHHTSTV | inactive |
| FGWVFLYDKLIPVKPFELYF | inactive |
| FGYNYLCTFSFIISMVHVRF | inactive |
| FHIRHEGMLFQWGHEALAVK | inactive |
| FHTPRILYTMNS | inactive |
| FIFHNHVFFDLSNMFRYYVY | 1.92 ± 0.087 |
| FIIDVLTMASTLGCSVQN | inactive |
| FIIIVDYSFMPGSRVCMFSW | inactive |
| FIPGAMVRYQGRILLRSDAG | inactive |
| FISLPWYCQLVMVRDTSIIK | inactive |
| FISLVPLLSLYRPWVKK | 0.836 ± 0.18 |
| FITFHENDAVELEG | inactive |
| FIVVVLLCFG | inactive |

| Substance | amyloid nucleation score |
| --- | --- |
| FIWAREFSVLRSHRRWPTEN | inactive |
| FKAMTFAYGYLTVGLSVVGV | inactive |
| FKASSGWLDLWD | inactive |
| FKAVQN | inactive |
| FKFVQDAHQNLGVIRSYRRS | inactive |
| FKRYY | inactive |
| FKSCLRTC | inactive |
| FKTCLGPQSTLVKGEVESHT | inactive |
| FKWDGPESQFGPSLMRINGA | 1.16 ± 0.19 |
| FLAFSMEYCYVPHFWKVSLS | 0.311 ± 0.25 |
| FLCLMTTKTKCNF | inactive |
| FLCMMTVVYQFVWMMMQGAV | inactive |
| FLDEFLWSCGIGFLRFIKDV | inactive |
| FLEWEGFRVCIENHMELLRF | inactive |
| FLFSWEKFVCLCCILY | 0.32 ± 0.49 |
| FLGSLDFVSIKCQITHVRTS | inactive |
| FLHILGHVNLFTSLREDLSL | inactive |
| FLLDMGVNALSW | inactive |
| FLLKEWLK | -0.626 ± 0.9 |
| FLLNLMIHLFYLVLKSRNQN | inactive |
| FLMHSKVTSCGVWSLYFADV | 1.44 ± 0.15 |
| FLMWVSR | 1.08 ± 0.12 |
| FLPDKGYTWKGTLWRWESNN | inactive |
| FLPRFGNHLTIRQKVRRTSG | inactive |

| Substance | amyloid nucleation score |
| --- | --- |
| FLSDYGSC | inactive |
| FLSLIKM | 0.39 ± 0.2 |
| FLSSVSLGDAHSWTFSR | inactive |
| FMHSLTGNSGWGKGYRKSHV | 1.04 ± 0.19 |
| FMPMFLRICCTMMLMWLFAC | inactive |
| FMSRMRKWFGCSNTHSSGTR | 1.77 ± 0.078 |
| FNERDWCNSSGSSHVLWSSM | inactive |
| FNGSTCCVSSV | inactive |
| FNLFRNLIMGNCSALMMDQP | inactive |
| FNLSVINSRGQLECVLNPVK | inactive |
| FNPKSWKVTKLYFKMYNRLD | inactive |
| FNSILIVSLHLFSGFDSMR | 1.86 ± 0.093 |
| FNSPSWTYDRLHFPAEQQAL | inactive |
| FNTFVPRKYH | inactive |
| FNVANIRSRFFHFTYSRKVS | inactive |
| FNVPS | 0.673 ± 0.42 |
| FNVRRHHYYGMCPLLISRVR | inactive |
| FNVTGFSIIGKFIHDWFFLL | inactive |
| FNVTWKRLRIGRVGMKQKLS | 0.336 ± 0.77 |
| FNWCWPISARAGELNLECWS | inactive |
| FNWFLRWFNPVCKDALWVEC | inactive |
| FNWMPMGEKSAWAVRVRSAC | inactive |
| FNWTKS | inactive |
| FPDLVVYSS | inactive |

| Substance | amyloid nucleation score |
| --- | --- |
| FPHGVHPYS | inactive |
| FPPCTLSKLGSGYHLSNESS | inactive |
| FPSIYLMSD | inactive |
| FPWSSRATRSGEVTV | inactive |
| FQYRLTVEGMSWWTGGW | inactive |
| FRFFFRKSQFYNRSLDNLVR | inactive |
| FRHPIYCLDLSFSYRMKARG | 0.052 ± 0.28 |
| FRKTRIALFLPLTLDF | inactive |
| FRMASS | inactive |
| FRQYHMRRVRLHGRRDVYGQ | inactive |
| FRYAMSYVGGMGSSINALIW | inactive |
| FRYQDNDLLAHAA | -0.474 ± 1 |
| FRYVWFCYCMNVERVENVRL | inactive |
| FSALWTRHKWNFPRMTTFAR | inactive |
| FSAPVLSTLTASLLELKRSG | inactive |
| FSDMCGRSFINSSWGGSAGV | inactive |
| FSEIVDYRGGIYGSYLNESM | inactive |
| FSFMLSDTGLSVFSSVYDEA | inactive |
| FSLSCPLSDPNVACTY | inactive |
| FSSLLTSDWRASCLGPYVNM | inactive |
| FSYVCFGYV | 0.337 ± 0.14 |
| FTMSYYKYLSHGRMRRGT | inactive |

From the supplement of paper PMC12042874
